Results taken from article PMC4504198 (Chemical biology & drug design, 2010).

Assay: in vitro
Assay type: in vitro ADME
Details: human, plasma

Row | Structure (SMILES) | half-life [days]
1 | [N-]=[N+]=NC(CCCCNC(=O)C1=C[C@H](O)[C@@H](NC(=O)[C@@H](CCC(=O)O)NC(=O)C2=C[C@H](O)[C@@H](NC(=O)[C@@H](CCC(=O)O)NC(=O)C3=C[C@H](O)[C@@H](NC(=O)[C@@H](CCC(=O)O)NC(=O)CN4CCN(CC(=O)O)CCN(CC(=O)O)CCN(CC(=O)O)CC4)[C@H]([C@H](O)[C@H](O)CO)O3)[C@H]([C@H](O)[C@H](O)CO)O2)[C@H]([C@H](O)[C@H](O)CO)O1)C(N)=O (some centres unmarked) [compound 7] | 4.08
2 | [N-]=[N+]=NC(CCCCNC(=O)[C@H](CCC(=O)O)NC(=O)C1=C[C@H](O)[C@@H](NC(=O)[C@H](CCC(=O)O)NC(=O)C2=C[C@H](O)[C@@H](NC(=O)[C@H](CCC(=O)O)NC(=O)C3=C[C@H](O)[C@@H](NC(=O)CN4CCN(CC(=O)O)CCN(CC(=O)O)CCN(CC(=O)O)CC4)[C@H]([C@H](O)[C@H](O)CO)O3)[C@H]([C@H](O)[C@H](O)CO)O2)[C@H]([C@H](O)[C@H](O)CO)O1)C(N)=O (some centres unmarked) [compound 10] | 16.2
